Columns and labels:
[1] = target: G12-insertion ClpX^ΔN single-chain pseudohexamer (E. coli) (UniProt P0A6H1)
[2] = target: wild-type single-chain ClpX^ΔN pseudohexamer (E. coli) (UniProt P0A6H1)
[3] = target: linker-deletion ClpX^ΔN single-chain pseudohexamer (E. coli) (UniProt P0A6H1)

Arc-st11-ssrA
KM of Arc-st11-ssrA degradation (0.1 μM ClpX, 0.3 μM ClpP) [1]: 4.1 µM | KM of Arc-st11-ssrA degradation (0.1 μM ClpX, 0.3 μM ClpP) [2]: 2.5 µM | KM of Arc-st11-ssrA degradation (0.1 μM ClpX, 0.3 μM ClpP); approximate [3]: 20 µM

Reference: PMC7091491
